The Human Domainome abundance scans (Beltran et al. 2025)

B1: Zinc finger homeobox protein 3, residues 2244 to 2299; numbered along this chain, Q15911 (parent)
chain: SSRTRFTDYQLRVLQDFFDANAYPKDDEFEQLSNLLNLPTRVIVVWFQNARQKARK

Variants of: B1
Assay: abundance fitness (aPCA) (normalised: wild type 0, dead -1); higher = more abundant; growth selection in yeast, the domain comes from the species named
Settings: Homo sapiens

Abundance fitness, by site and new letter:
T4: P -0.154; H -0.072; W -0.656; M 0.304; E -0.357; I 0.032; Q -0.08; Y -0.198; C -0.632; K -0.661; G -0.394; S 0.024; F 0.03; A -0.883; D 0.117; R -0.388; N 0.211; L -0.116; V -0.634
F18: T -0.772; A -0.279; Y 0.011; I -0.249; Q -0.268; G -0.984; M -0.298; E -0.579; W -0.424; S -0.349; V -0.435; K -0.625; L -0.19; N -0.733; C -0.174
A20: Y -0.291; R 0.075; D -0.102; F -0.618; N 0.24; M -0.268; W -0.36; E -0.115; Q -0.111; I -0.405; S -0.065; V -0.249; L -0.188; T -0.044; G -0.13; P -0.543
L11: F -0.364; H -0.203; G -0.171; W -0.361; R -0.141; Y -0.404; C -0.743; M 0.204; K -0.146; I 0.055; E 0.038; S 0.062; A -0.181; T 0.172; V 0.015; N 0.007
R12: E -0.422; V -0.466; D 0.024; F -0.738; W -0.504; G -0.238; I -0.312; Y -0.524; S -0.149; A -0.455; P -0.794; H 0.051; L -0.221; M -0.378; Q 0.045; N 0.035; T -0.136; C -0.531; K 0.169
Y9: A 0.083; H -0.129; P -0.195; D 0.002; I -0.383; M -0.005; S 0.053; G -0.063; E -0.007; T -0.135; Q 0.211; N -0.097; K 0.162; W -0.217; L -0.216
Q15: S -0.22; N -0.077; G -0.01; K -0.243; R -0.213; E 0.015; T -0.113; D -0.172; P -0.889; M -0.155; L -0.079; H -0.036; F -0.299; C -0.668; V -0.319; W -0.213; Y -0.559
L14: F -0.768; A -0.668; I -0.108; W -0.946; K -0.948; C -0.508; E -0.807; D -0.825; Q -0.549; R -0.93; V -0.493; H -1.24; G -0.931; N -0.953; S -0.849; P -0.832; M -0.019; Y -1.05
D8: P -0.235; Q -0.035; R -0.173; G -0.145; I -0.641; L -0.332; W -0.401; V -0.405; K -0.027; A -0.123; F -0.591; C -0.022; E -0.138; T -0.158; H -0.269; N -0.237; M -0.202
R3: G 0.281; V 0.392; I 0.108; Y 0.301; S 0.386; A 0.388; H 0.368; D 0.505; L 0.439; E 0.038; T 0.4; W 0.094; M 0.308; F 0.387; C 0.467; N 0.43; P 0.17
V13: R -0.323; F -0.291; A -0.018; W -0.794; Q 0.168; G -0.339; K 0.008; S -0.048; H -0.178; C -0.276; P -0.773; D -0.692; T -0.116; M 0.173; L -0.093; N -0.244; E -0.237; Y 0.003; I -0.359
F6: V -0.21; T -0.433; M 0.094; N -0.52; A -0.678; R -0.703; L -0.321; E -0.657; K -0.408; H -0.672; P -0.774; C -0.345; I -0.164; G -0.633; Y -0.06
S1: M -0.277; N 0.158; T 0.003; W -0.939; R -0.097; V -0.158; P -0.636
T7: G -0.487; D -0.258; A -0.289; Y -0.446; C -0.563; H -0.665; V -0.614; F -0.725; M -0.46; S -0.186; I -0.586; N -0.565; R -0.556; K -0.272; P -0.84; L -0.363
N21: G -0.378; D -0.306; E -0.262; A -0.428; K 0.166; C -0.232; H 0.031; L -0.912
Q10: L -0.919; P -0.923; A -0.649; S -0.445; C -0.764; T -0.714; K -0.924; E -0.59; I -0.769; H -0.563; M -0.216; D -0.631; G -0.863; F -0.569; N -0.76; R -0.724; W -0.964
S2: C -0.118; G -0.006; D 0.21; Q -0.093; H -0.043; Y 0.097; T 0.214; R -0.299; L 0.026; N 0.007; K -0.194; M 0.321; E 0.182; F -0.214; W -0.255; V 0.042; I 0.393; A -0.353
R5: Y 0.344; K 0.29; D 0.423; F 0.234; I 0.323; N 0.305; W 0.234; E 0.321; H 0.218; P 0.026; A 0.213; V 0.362; T 0.274; L 0.197; M 0.478; S 0.2; G 0.19; C 0.323; Q 0.092
D16: F -0.596; Q -0.035; I -0.22; H 0.033; E -0.129; G -0.023; Y -0.797; V -0.344; S -0.023; R -0.035; W -0.714; N -0.222; C -0.472; A -0.353; K -0.179; T -0.114
D19: T 0.046; M 0.169; K -0.164; P -0.686; R -0.012; S -0.299; C -0.036; E 0.172; A -0.024; W -0.329; G -0.414; Q -0.263; V -0.141
F17: E -0.076; R 0.084; W -0.214; Q -0.47; P -1.08; T -0.074; D -0.876; M -0.039; L -0.381; K 0.011; A 0.17; Y 0.03; C -0.222; V -0.124; N -0.125; H 0.245; S -0.025
